Measured values from patent US20250136696A1 (HARBOUR BIOMED SHANGHAI, published 2025).

Legend:
[1] = molecular target: T1, cynomolgus monkey B7-H7 on the cell surface (cynomolgus monkey); assay: flow cytometry, HEK-293/cyno B7-H7 cells
T1 construct: whole, on cells; also called cyno B7-H7
Experimental: (§1) This example was intended to study the in vitro activity of H2L2 monoclonal antibodies against human B7-H7 in binding to human/cynomolgus monkey B7-H7. Since homologous molecules of B7-H7 were not present in mice, the detection was not performed. […] The cells were adjusted to a cell density of 1×10⁶ cells/mL, respectively. The cells were seeded in a 96-well V-bottom plate (Corning, #3894) at 100 μL/well, and the antibody to be tested at 2× final concentration with 3-fold concentration gradient dilution was then added at 100 μL/well. The cells were incubated at 4° C. for 2 hours in the dark. After the incubation, the cells were rinsed twice by adding pre-chilled PBS containing 2% BSA at 100 μl/well, and centrifuged at 500 g at 4° C. for 5 minutes, and the supernatant was discarded. […] The cells were washed twice by adding pre-chilled PBS containing 2% BSA at 100 μL/well, and centrifuged at 500 g at 4° C. for 5 minutes, and the supernatant was discarded. Finally, the cells were resuspended in pre-chilled PBS containing 2% BSA at 200 μL/well, and the fluorescence signal values were read using an ACEA Novocyte3000 flow cytometer.

[2] = molecular target: T2, biotinylated human B7-H7 protein (Acro Biosystems, B77-H82F5) (human, UniProt Q9UM44 23-344, biotinylated); assay: flow cytometry, blocking of biotinylated human B7-H7 binding to HEK-293/CD28H cells
T2 construct: Bought soluble protein; also called biotin-B7H7 protein
T2 sequence (looked up): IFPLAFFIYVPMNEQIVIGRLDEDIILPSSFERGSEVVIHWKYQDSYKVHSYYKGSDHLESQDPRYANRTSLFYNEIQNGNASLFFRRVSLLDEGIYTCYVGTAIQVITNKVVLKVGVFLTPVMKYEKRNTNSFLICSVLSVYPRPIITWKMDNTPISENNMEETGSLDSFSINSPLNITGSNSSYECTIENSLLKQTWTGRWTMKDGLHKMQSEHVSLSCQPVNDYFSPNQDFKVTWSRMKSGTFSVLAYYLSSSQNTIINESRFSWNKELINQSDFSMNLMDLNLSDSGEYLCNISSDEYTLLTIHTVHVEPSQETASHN
Experimental: This example was intended to study the in vitro blocking activity of human anti-B7-H7 antibodies against the binding of human B7-H7 to its receptor CD28H. […] The cells were adjusted to a cell density of 1×10⁶ cells/mL. […] The cells were incubated at 4° C. for 1 hour in the dark. […] The cells were rinsed twice by adding pre-chilled PBS containing 2% BSA at 100 μL/well, and were centrifuged at 500 g at 4° C. for 5 minutes, and the supernatant was discarded. A fluorescent secondary antibody (PE Streptavidin, BD, Cat #: 554061, 1:200) was added at 100 μL/well, and the cells were incubated at 4° C. for 30 minutes in the dark. The cells were washed twice by adding pre-chilled PBS at 200 μL/well, and centrifuged at 500 g at 4° C. for 5 minutes, and the supernatant was discarded. Finally, the cells were resuspended in pre-chilled PBS at 200 μL/well, and the fluorescence signal values were read using an ACEA Novocyte3000 flow cytometer. IC50 was calculated.

[3] = molecular target: T3, human B7-H7 on the cell surface (human, UniProt Q9UM44 23-414); assay: flow cytometry, HEK-293/hu B7-H7 cells
T3 construct: whole, on cells; also called hB7-H7; hu B7-H7
T3 sequence (looked up): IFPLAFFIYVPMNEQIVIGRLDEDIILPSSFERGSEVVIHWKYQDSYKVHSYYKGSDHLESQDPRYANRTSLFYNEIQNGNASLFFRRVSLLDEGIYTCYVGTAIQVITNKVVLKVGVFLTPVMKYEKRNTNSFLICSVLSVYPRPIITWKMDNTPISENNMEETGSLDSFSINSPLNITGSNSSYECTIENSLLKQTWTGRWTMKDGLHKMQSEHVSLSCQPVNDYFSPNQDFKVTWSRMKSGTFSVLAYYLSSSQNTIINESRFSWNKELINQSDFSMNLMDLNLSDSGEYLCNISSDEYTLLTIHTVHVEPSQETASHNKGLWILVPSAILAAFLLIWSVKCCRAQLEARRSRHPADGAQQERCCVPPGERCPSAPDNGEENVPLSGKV
Experimental: as §1

[4] = molecular target: T3, human B7-H7 on the cell surface; assay: flow cytometry, HCC827 cells
Experimental: as §1

[5] = molecular target: T2, biotinylated human B7-H7 protein (Acro …); assay: BLI epitope competition on SA-captured biotinylated B7-H7; competitor (first antibody) PR003249
Experimental: Epitope competition experiments were performed on the anti-B7-H7 antibodies using the ForteBio Octet Red96e platform with the same experimental buffer as described above. […] After being equilibrated in a buffer for 120 s, the sensors were immersed in various antibodies diluted to 100 nM for 240 s, and the final signal of the antibody binding to B7-H7 was recorded as the 100% signal for that antibody. Second step, epitope competition experiment: B7-H7 was captured using SA sensors at a capture height of 0.25 nm. The sensors were immersed in a first antibody (concentration: 100 nM) for 240 s, then the SA sensors were immersed in a mixture of the first antibody and a second antibody (final concentration of both antibodies: 100 nM) for 240 s, and the difference in signals before and after immersing the sensors in the mixture of the two antibodies was recorded as the signal for that antibody as the second antibody. The inhibition rate was calculated by the following equation, […]

[6] = molecular target: T2, biotinylated human B7-H7 protein (Acro …); assay: flow cytometry, blocking of biotinylated human B7-H7 binding to CHO-K1/KIR3DL3 cells
Excerpt: This example was intended to study the in vitro blocking activity of human anti-B7-H7 antibodies against the binding of human B7-H7 to its receptor KIR3DL3. A CHO-K1 cell (CHO-K1/KIR3DL3, Harbour BioMed US, Inc.) overexpressing human KIR3DL3 was used in experiments at the cellular level where human B7-H7/human KIR3DL3 binding was blocked. Briefly, the CHO-K1/KIR3DL3 cells were digested and resuspended in PBS containing 2% BSA. The cells were adjusted to a cell density of 1×10⁶ cells/mL. […] The cells were incubated at 4° C. for 1 hour in the dark. […] The cells were rinsed twice by adding pre-chilled PBS containing 2% BSA at 100 μL/well, and were centrifuged at 500 g at 4° C. for 5 minutes, and the supernatant was discarded. A fluorescent secondary antibody (PE Streptavidin, BD, Cat #: 554061, 1:200) was added at 100 μL/well, and the cells were incubated at 4° C. for 30 minutes in the dark. The cells were washed twice by adding pre-chilled PBS at 200 µL/well, and centrifuged at 500 g at 4° C. for 5 minutes, and the supernatant was discarded. Finally, the cells were resuspended in pre-chilled PBS at 200 μL/well, and the fluorescence signal values were read using an ACEA Novocyte3000 flow cytometer. IC50 was calculated.

[7] = molecular target: T4, human B7-H7 recombinant protein (human, UniProt Q9UM44 23-344); assay: BLI (Octet), antibody captured on AHC sensor, human B7-H7 in solution, 1:1 global fit
T4 construct: also called human B7-H7 protein
T4 sequence (looked up): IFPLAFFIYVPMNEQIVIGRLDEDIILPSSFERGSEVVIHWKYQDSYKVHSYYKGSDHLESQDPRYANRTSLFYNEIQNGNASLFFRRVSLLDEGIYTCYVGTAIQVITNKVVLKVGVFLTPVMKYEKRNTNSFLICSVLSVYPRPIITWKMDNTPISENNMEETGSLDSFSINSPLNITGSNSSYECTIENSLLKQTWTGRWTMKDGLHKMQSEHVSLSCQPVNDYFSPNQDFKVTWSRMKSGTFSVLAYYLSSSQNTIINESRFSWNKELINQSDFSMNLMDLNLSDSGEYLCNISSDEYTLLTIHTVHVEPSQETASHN
Experimental: The binding kinetics between antigen and antibody was analyzed using an Octet Red 96e (Fortebio) molecular interaction analyzer by biolayer interferometry (BLI) technology.
For determining the affinity of antibodies for antigens, the rotary speed of the sensor was set at 1000 rpm. AHC sensors (Fortebio, #18-5060) placed in one column were first equilibrated in a test buffer for 10 minutes, and then used to capture the anti-B7-H7 antibodies at a capture height of 0.7 nm; and after being equilibrated in the buffer for 120 s, the AHC sensors bound to human B7-H7 (concentrations: 50-3.125 nM and 0 nM) with 2-fold gradient dilution for 180 s and dissociated for 300 s. The AHC sensors were finally regenerated by immersing in a 10 mM glycine-hydrochloric acid solution with pH 1.5 to elute the protein bound to the sensors.
For data analysis using Octet Data Analysis software (Fortebio, version 11.0), 0 nM well was used as the reference well, reference subtraction was performed, “1:1 Global fitting” method was selected for data fitting, the kinetic parameters of the binding of the antigen to the antigen-binding protein were calculated, and the kₒₙ (1/Ms) value, kdis (1/s) value and KD (M) value were obtained.

B1: PR003252 (antibody, human IgG1, kappa, V domains shown)
VH: QVQLVESGGGVVQPGRSLRLSCAASGFTFSNYAMHWVRQVPGKGLEWVALIWYDGSEKYYADSVKGRFTISRDDSKNTLFLQMSSLRAEDTAVYSCVREYSSGWGYFDYWGQGTQVTVSS
VL: DIQMTQSPSTLSASVGDRVTITCRASQSISSWLAWYQQKPGKAPKLLIYKASSLKSGVPSRFSGSGSGTEFTLTISSLQPDDFATYYCLQYNSYYTFGQGTKLEIKR
notes: Human IgG1; also called 53C12D4
EC50 [1]: 0.429 nM
Maximum MFI [1]: 414000 MFI
IC50 [2]: 1.43 nM
Maximum inhibition rate (%) [2]: 101%
EC50 [3]: 1.04 nM
Maximum MFI [3]: 837000 MFI
Maximum MFI [4]: 69400 MFI
Competitive inhibition rate (%) [5]: 107%
IC50 [6]: 7.59 nM
Maximum inhibition rate (%) [6]: 97.1%
Kd [7]: 1.06 nM
koff [7]: 0.000132 s⁻¹
kon [7]: 125000 M⁻¹ s⁻¹

B2: PR003265 (antibody, human IgG1, kappa, V domains shown)
VH: QVQLVESGGGVVQPGRSLRLSCAASGFTFSTYGLHWVRQAPGKGLEWVAVIWYDESNEYYADSVKGRFTISRDNSKNTLYLQMNSLRAEDTALYYCARLAHDYGGTYFDYWGQGTLVTVSS
VL: EIVMTQSPAILSVSPGERATLSCRASQSISYNLAWYQQKPGQAPRLLIYGASIRATGIPARFSGSGSGTDFTLTISSLQSEDFAVYYCQQYNNWPPWTFGQGTKVEIKR
notes: Human IgG1; also called 78G8B3
EC50 [1]: 0.711 nM
Maximum MFI [1]: 451000 MFI
IC50 [2]: 1.39 nM
Maximum inhibition rate (%) [2]: 102%
EC50 [3]: 1.24 nM
Maximum MFI [3]: 824000 MFI
EC50 [4]: 0.0903 nM
Maximum MFI [4]: 51800 MFI
Competitive inhibition rate (%) [5]: 106%
IC50 [6]: 7.04 nM
Maximum inhibition rate (%) [6]: 101%
Kd [7]: 0.595 nM
koff [7]: 2.93e-05 s⁻¹
kon [7]: 49300 M⁻¹ s⁻¹

B3: PR003250 (antibody, human IgG1, kappa, V domains shown)
VH: QVQLVESGGGVVQPGRSLRLSCAASGFTFSDYGIHWVRQAPGKGLEWVAVIWYDGSDKYYADSVRGRFTISRDNSKNTLSLQMNSLRAEDTAVYYCARDRSSGAMGYFAYWGQGTLVTVSS
VL: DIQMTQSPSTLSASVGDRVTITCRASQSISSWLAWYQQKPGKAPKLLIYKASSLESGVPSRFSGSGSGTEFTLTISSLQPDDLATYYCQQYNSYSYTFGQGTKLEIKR
notes: Human IgG1; also called 34G2E6
EC50 [1]: 0.399 nM
Maximum MFI [1]: 405000 MFI
IC50 [2]: 1.41 nM
Maximum inhibition rate (%) [2]: 101%
EC50 [3]: 0.995 nM
Maximum MFI [3]: 823000 MFI
EC50 [4]: 0.00294 nM
Maximum MFI [4]: 68800 MFI
Competitive inhibition rate (%) [5]: 103%
IC50 [6]: 8.49 nM
Maximum inhibition rate (%) [6]: 97.2%
Kd [7]: 2.91 nM
koff [7]: 0.000271 s⁻¹
kon [7]: 93200 M⁻¹ s⁻¹

B4: PR003261 (antibody, human IgG1, kappa, V domains shown)
VH: QVQLVESGGGVVQPGRSLRLSCAASGFTFSNYGMHWVRQAPGKGLEWVAVIWYDGTNKNYADSVKGRFTISRDNSKNTLDLQMNSLRAEDTAVYFCARDRNTAMDYFVYWGQGTLVTVSS
VL: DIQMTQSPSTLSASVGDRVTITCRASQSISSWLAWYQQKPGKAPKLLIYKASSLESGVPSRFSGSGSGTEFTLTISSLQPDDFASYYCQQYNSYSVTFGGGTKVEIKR
notes: Human IgG1; also called 74A11E4
EC50 [1]: 0.326 nM
Maximum MFI [1]: 275000 MFI
IC50 [2]: 1.49 nM
Maximum inhibition rate (%) [2]: 100%
EC50 [3]: 0.941 nM
Maximum MFI [3]: 723000 MFI
EC50 [4]: 0.0445 nM
Maximum MFI [4]: 60100 MFI
Competitive inhibition rate (%) [5]: 111%
IC50 [6]: 7.5 nM
Maximum inhibition rate (%) [6]: 105%
Kd [7]: 4.6 nM
koff [7]: 0.000336 s⁻¹
kon [7]: 73000 M⁻¹ s⁻¹

B5: PR003248 (antibody, human IgG1, kappa, V domains shown)
VH: QVQLVESGGGVVQPGRSLRLSCAASGFTFSDYGLHWVRQAPGRGLEWVAVIWYDGSEEYYADSVKGRFTISRDNSKKSLYLQMNSLRAEDTAVYFCARDRNSGALGYFPHWGQGTLVTVSS
VL: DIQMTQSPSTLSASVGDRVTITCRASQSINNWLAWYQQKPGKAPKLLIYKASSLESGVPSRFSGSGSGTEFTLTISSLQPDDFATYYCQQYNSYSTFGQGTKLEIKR
notes: Human IgG1, fully human, from Harbour H2L2 mice; also called 13D8D2
EC50 [1]: 8.51 nM
Maximum MFI [1]: 698000 MFI
IC50 [2]: 1.87 nM
Maximum inhibition rate (%) [2]: 101%
EC50 [3]: 1.81 nM
Maximum MFI [3]: 981000 MFI
EC50 [4]: 0.0399 nM
Maximum MFI [4]: 68600 MFI
Competitive inhibition rate (%) [5]: 108%
IC50 [6]: 12.9 nM
Maximum inhibition rate (%) [6]: 99.3%
Kd [7]: 1.6 nM
koff [7]: 0.00014 s⁻¹
kon [7]: 88000 M⁻¹ s⁻¹

B6: PR003266 (antibody, human IgG1, kappa, V domains shown)
VH: QVQLVESGGGVVQPGRSLRLSCAASGFTFSDYGMHWVRQAPGKGLEWVAIIWYDGSNKYYADSVKGRFTISRDNSKNTLYLQMNSLRAEDTAVYYCARDRSSGALGYFQHWGQGTLVTVSS
VL: not shown
notes: Human IgG1; also called 7D3D2
EC50 [1]: 0.211 nM
Maximum MFI [1]: 170000 MFI
IC50 [2]: 1.57 nM
Maximum inhibition rate (%) [2]: 101%
EC50 [3]: 0.663 nM
Maximum MFI [3]: 531000 MFI
EC50 [4]: 0.0477 nM
Maximum MFI [4]: 49300 MFI
Competitive inhibition rate (%) [5]: 107%
IC50 [6]: 8.55 nM
Maximum inhibition rate (%) [6]: 102%
Kd [7]: 9.93 nM
koff [7]: 0.000648 s⁻¹
kon [7]: 65200 M⁻¹ s⁻¹
